From publication PMC10516921 (Nature Communications, 2023)

Key:
[1] = target: human ferroptosis suppressor protein 1, full length, recombinant from E. coli (human) (UniProt Q9BRQ8); assay: dynamic light scattering; DynaPro NanoStar, 8 °C or 20 °C, 5-10 μM protein in buffer B; also with NADH
[2] = target: the molecule itself; assay: SEC; Superdex 200 Increase 10/300 GL, buffer B (20 mM Tris-HCl pH 8.0, 150 mM NaCl), 0.5 ml/min, 20 °C, molecular weight markers
[3] = target: the molecule itself; assay: SEC + other: dynamic light scattering; in solution; the sentence points to Supplementary Fig. 4 as a whole (gel filtration in panels a, b; DLS in panel c)

human ferroptosis suppressor protein 1, full length, recombinant from E. coli (from UniProt Q9BRQ8 1-373) (enzyme)
stoichiometry N [1]: 2

B1: Gallus gallus FSP1 residues 12-373 (cFSP1^ΔN), not methylated (domain or fragment, Gallus gallus (chicken), UniProt E1BR24 12-373, looked up)
chain: RVVIVGGGFGGIAAASQLKSWAVPFVLVDMRDAFHHNVAALRASVESGFARKTFISYSVTFGDSFRQGKVVGIDPERQQVLLSDGEELHYSHLILATGSDGPFPGKFNKVIDMESAIQTYEDMVKEIEKSERILVVGGGAAGVEMAAEIKTEYPAKEVTLIHSKIALADVELLQSVRQEVKEILLRKGVRLLLSEKVSNVENLTTNQFQKDMVVRTEKGTEVVVDMVVLCTGIKINSSAYATAFGDKLASNGALNVNKHLQLEGYDNIYAIGDCANLKEPKMAYHAELHANIVVSNIINSLTHKPLKTYQPGSLTFLLSMGKNDGVGQVKGYYVGHLLVTIAKSRDLFVSKSWKTMGQPMPS
notes: FSP1 (AIFM2) of chicken (Gallus gallus), residues 12-373; lacks the N-terminal myristoylation motif (residues 1-11); Same limits as the crystallized, methylated protein; also called native cFSP1^ΔN; source: E. coli BL21 (DE3), purified (Ni-Chelating Sepharose, Superdex 200 Increase)
stoichiometry N [2]: 2

B2: Gallus gallus FSP1 residues 12-373 (cFSP1^ΔN), reductively methylated (domain or fragment, Gallus gallus (chicken), UniProt E1BR24 12-373, looked up)
chain: B1 chain
modifications: surface lysine residues modified by reductive methylation (formaldehyde and dimethylamine-borane complex)
notes: FSP1 (AIFM2) of chicken (Gallus gallus), residues 12-373; lacks the N-terminal myristoylation motif (residues 1-11); Crystallized substrate-free and with CoQ1; A selenomethionine derivative was used for phasing; also called methylated cFSP1^ΔN; source: E. coli BL21 (DE3), purified (Ni-chelating resin, HiTrap Heparin, reductive methylation, Superdex 200 Increase)
stoichiometry N [2]: 2

B3: human FSP1 residues 1-316 (hFSP1^ΔCTD), recombinant from E. coli (domain or fragment, UniProt Q9BRQ8 1-316, looked up)
chain: MGSQVSVESGALHVVIVGGGFGGIAAASQLQALNVPFMLVDMKDSFHHNVAALRASVETGFAKKTFISYSVTFKDNFRQGLVVGIDLKNQMVLLQGGEALPFSHLILATGSTGPFPGKFNEVSSQQAAIQAYEDMVRQVQRSRFIVVVGGGSAGVEMAAEIKTEYPEKEVTLIHSQVALADKELLPSVRQEVKEILLRKGVQLLLSERVSNLEELPLNEYREYIKVQTDKGTEVATNLVILCTGIKINSSAYRKAFESRLASSGALRVNEHLQVEGHSNVYAIGDCADVRTPKMAYLAGLHANIAVANIVNSVKQR
notes: FSP1 (AIFM2), human, residues 1-316; lacks the C-terminal domain; source: E. coli BL21 (DE3), purified (Ni-Chelating Sepharose, Ulp1 cleavage, Superdex 200 Increase); not shown: His6, N-terminal, cleaved; SUMO, N-terminal, cleaved
stoichiometry N [3]: 2

B4: Gallus gallus FSP1 residues 1-318 (cFSP1^ΔCTD) (domain or fragment, Gallus gallus (chicken), UniProt E1BR24 1-318, looked up)
chain: MGSRLSVDDSVRVVIVGGGFGGIAAASQLKSWAVPFVLVDMRDAFHHNVAALRASVESGFARKTFISYSVTFGDSFRQGKVVGIDPERQQVLLSDGEELHYSHLILATGSDGPFPGKFNKVIDMESAIQTYEDMVKEIEKSERILVVGGGAAGVEMAAEIKTEYPAKEVTLIHSKIALADVELLQSVRQEVKEILLRKGVRLLLSEKVSNVENLTTNQFQKDMVVRTEKGTEVVVDMVVLCTGIKINSSAYATAFGDKLASNGALNVNKHLQLEGYDNIYAIGDCANLKEPKMAYHAELHANIVVSNIINSLTHKPLK
notes: FSP1 (AIFM2) of chicken (Gallus gallus), residues 1-318; lacks the C-terminal domain (319-373); source: E. coli BL21 (DE3), purified (Ni-Chelating Sepharose, Superdex 200 Increase)
stoichiometry N [3]: 2

B5: Gallus gallus ferroptosis suppressor protein 1, full length (enzyme, Gallus gallus (chicken), UniProt E1BR24 1-373, looked up)
chain: MGSRLSVDDSVRVVIVGGGFGGIAAASQLKSWAVPFVLVDMRDAFHHNVAALRASVESGFARKTFISYSVTFGDSFRQGKVVGIDPERQQVLLSDGEELHYSHLILATGSDGPFPGKFNKVIDMESAIQTYEDMVKEIEKSERILVVGGGAAGVEMAAEIKTEYPAKEVTLIHSKIALADVELLQSVRQEVKEILLRKGVRLLLSEKVSNVENLTTNQFQKDMVVRTEKGTEVVVDMVVLCTGIKINSSAYATAFGDKLASNGALNVNKHLQLEGYDNIYAIGDCANLKEPKMAYHAELHANIVVSNIINSLTHKPLKTYQPGSLTFLLSMGKNDGVGQVKGYYVGHLLVTIAKSRDLFVSKSWKTMGQPMPS
notes: Ferroptosis suppressor protein 1 (FSP1, AIFM2) of chicken (Gallus gallus), full length, residues 1-373; gene optimized and synthesized, in pET-22b; also called cFSP1; chicken FSP1; source: E. coli BL21 (DE3), purified (Ni-Chelating Sepharose, Superdex 200 Increase)
stoichiometry N [2]: 2
